# Assay results: publication doi:10.1101/2020.03.19.999276 (bioRxiv, 2020)
# B1: Δ1-688 hTRPA1 (hTRPA1 without its N-terminal ankyrin repeat domain) (domain or fragment, human, UniProt O75762 689-1119, looked up)
# chain: MVQNNRIELLNHPVCKEYLLMKWLAYGFRAHMMNLGSYCLGLIPMTILVVNIKPGMAFNSTGIINETSDHSEILDTTNSYLIKTCMILVFLSSIFGYCKEAGQIFQQKRNYFMDISNVLEWIIYTTGIIFVLPLFVEIPAHLQWQCGAIAVYFYWMNFLLYLQRFENCGIFIVMLEVILKTLLRSTVVFIFLLLAFGLSFYILLNLQDPFSSPLLSIIQTFSMMLGDINYRESFLEPYLRNELAHPVLSFAQLVSFTIFVPIVLMNLLIGLAVGDIAEVQKHASLKRIAMQVELHTSLEKKLPLWFLRKVDQKSTIVYPNKPRSGGMLFHIFCFLFCTGEIRQEIPNADKSLEMEILKQKYRLKDLTFLLEKQHELIKLIIQKMEIISETEDDDSHCSFQDRFKKEQMEQRNSRWNTVLRAVKAKTHHLEP
# modifications: Ni-NTA Atto647N on the N-terminal His-tag (labeled copies in FCS)
# B2: purified human TRPA1 (hTRPA1) (natural protein, UniProt O75762 1-1119, looked up)
# chain: MKRSLRKMWRPGEKKEPQGVVYEDVPDDTEDFKESLKVVFEGSAYGLQNFNKQKKLKRCDDMDTFFLHYAAAEGQIELMEKITRDSSLEVLHEMDDYGNTPLHCAVEKNQIESVKFLLSRGANPNLRNFNMMAPLHIAVQGMNNEVMKVLLEHRTIDVNLEGENGNTAVIIACTTNNSEALQILLKKGAKPCKSNKWGCFPIHQAAFSGSKECMEIILRFGEEHGYSRQLHINFMNNGKATPLHLAVQNGDLEMIKMCLDNGAQIDPVEKGRCTAIHFAATQGATEIVKLMISSYSGSVDIVNTTDGCHETMLHRASLFDHHELADYLISVGADINKIDSEGRSPLILATASASWNIVNLLLSKGAQVDIKDNFGRNFLHLTVQQPYGLKNLRPEFMQMQQIKELVMDEDNDGCTPLHYACRQGGPGSVNNLLGFNVSIHSKSKDKKSPLHFAASYGRINTCQRLLQDISDTRLLNEGDLHGMTPLHLAAKNGHDKVVQLLLKKGALFLSDHNGWTALHHASMGGYTQTMKVILDTNLKCTDRLDEDGNTALHFAAREGHAKAVALLLSHNADIVLNKQQASFLHLALHNKRKEVVLTIIRSKRWDECLKIFSHNSPGNKCPITEMIEYLPECMKVLLDFCMLHSTEDKSCRDYYIEYNFKYLQCPLEFTKKTPTQDVIYEPLTALNAMVQNNRIELLNHPVCKEYLLMKWLAYGFRAHMMNLGSYCLGLIPMTILVVNIKPGMAFNSTGIINETSDHSEILDTTNSYLIKTCMILVFLSSIFGYCKEAGQIFQQKRNYFMDISNVLEWIIYTTGIIFVLPLFVEIPAHLQWQCGAIAVYFYWMNFLLYLQRFENCGIFIVMLEVILKTLLRSTVVFIFLLLAFGLSFYILLNLQDPFSSPLLSIIQTFSMMLGDINYRESFLEPYLRNELAHPVLSFAQLVSFTIFVPIVLMNLLIGLAVGDIAEVQKHASLKRIAMQVELHTSLEKKLPLWFLRKVDQKSTIVYPNKPRSGGMLFHIFCFLFCTGEIRQEIPNADKSLEMEILKQKYRLKDLTFLLEKQHELIKLIIQKMEIISETEDDDSHCSFQDRFKKEQMEQRNSRWNTVLRAVKAKTHHLEP
# modifications: Ni-NTA Atto647N on the N-terminal His-tag (labeled copies in FCS)
# Target: the molecule itself
# Assay: fluorescence correlation spectroscopy
row,Protein,stoichiometry N
1,B1,4
2,B2,4
